# Experimental data from article PMC2173223 (The Journal of Cell Biology, 2002).
# T1: Tim13p (recombinant, co-expressed with Tim8p in E. coli) (S. cerevisiae, UniProt P53299 1-105)
# T1 sequence (looked up): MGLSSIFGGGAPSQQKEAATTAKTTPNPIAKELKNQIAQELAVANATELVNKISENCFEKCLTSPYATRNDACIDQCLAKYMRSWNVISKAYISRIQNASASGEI
# B1: Tim8p (recombinant, co-expressed with Tim13p in E. coli) (natural protein, S. cerevisiae, UniProt P57744 1-87, looked up)
# chain: MSSLSTSDLASLDDTSKKEIATFLEGENSKQKVQMSIHQFTNICFKKCVESVNDSNLSSQEEQCLSNCVNRFLDTNIRIVNGLQNTR
# Target: T1, Tim13p (recombinant, co-expressed with …)
# Assay: quantitative amino acid analysis
binder,measurement,value
B1,stoichiometry N,1 molar ratio
